{"source": "patent US20100196267A1", "binders": {"B1": {"name": "hL243γ1 (antibody, human IgG1, V domains shown)", "VH": "QVQLQQSGSELKKPGASVKVSCKASGFTFTNYGMNWVKQAPGQGLKWMGWINTYTREPTYADDFKGRFAFSLDTSVSTAYLQISSLKADDTAVYFCARDITAVVPTGFDYWGQGSLVTVSS", "VL": "DIQLTQSPSSLSASVGDRVTITCRASENIYSNLAWYRQKPGKAPKLLVFAASNLADGVPSRFSGSGSGTDYTFTISSLQPEDIATYYCQHFWTTPWAFGGGTKLQIKR"}, "B2": {"name": "hMN-14 (antibody, INN chains, looked up, V domains shown)", "VH": "EVQLVESGGGVVQPGRSLRLSCSASGFDFTTYWMSWVRQAPGKGLEWIGEIHPDSSTINYAPSLKDRFTISRDNAKNTLFLQMDSLRPEDTGVYFCASLYFGFPWFAYWGQGTPVTVSS", "VL": "DIQLTQSPSSLSASVGDRVTITCKASQDVGTSVAWYQQKPGKAPKLLIYWTSTRHTGVPSRFSGSGSGTDFTFTISSLQPEDIATYYCQQYSLYRSFGQGTKVEIKR"}, "B3": {"name": "MN14 (murine) (antibody, from a related filing, V domains shown)", "VH": "EVKLLESGGGLVQSGGSLKLSCAASGFDFTTYWMSWVRQAPGKGLEWIGEIHPDSSTINYAPSLKDKFIVSRDNAKNTLYLQMSKVRSEDTALYYCASLYFGFPWFAYWGQGTPVTVSA", "VL": "EIQLTQSHKMMSTSVGDRVSITCKASQDVGTSVAWYQQRPGQSPKLLIYWTSTRHTGVPDRFTGSVSGTDFTLTITNVQSEDLADYFCQQYSLYRSFGGGTKLEIK"}}, "key": {"[1]": {"molecular_target": "human serum complement (human)", "experiment": "cell-based or functional assay"}, "HLA-DR (human) [2]": {"molecular_target": "HLA-DR (human)", "experiment": "indirect FACS, FITC-GAH Fc 2nd Ab, Namalwa cells (none 2.5); control antibody"}, "HLA-DR (human) [3]": {"molecular_target": "HLA-DR (human)", "experiment": "indirect FACS, FITC-GAH Fc 2nd Ab, Daudi cells (none 3.1); control antibody"}, "HLA-DR (human) [4]": {"molecular_target": "HLA-DR (human)", "experiment": "indirect FACS, FITC-GAH Fc 2nd Ab, Ramos cells (none 3.1); control antibody"}, "HLA-DR (human) [5]": {"molecular_target": "HLA-DR (human)", "experiment": "indirect flow cytometry, FITC-GAH Fc 2nd Ab, RL cells (none 2.4); negative control antibody"}, "HLA-DR (human) [6]": {"molecular_target": "HLA-DR (human)", "experiment": "indirect flow cytometry, FITC-GAH Fc 2nd Ab, Daudi cells (none 3.2); negative control antibody"}, "HLA-DR (human) [7]": {"molecular_target": "HLA-DR (human)", "experiment": "indirect flow cytometry on Namalwa cells, FITC-GAH 2nd Ab (none 2.52); control antibody"}, "HLA-DR (human) [8]": {"molecular_target": "HLA-DR (human)", "experiment": "indirect FACS, FITC-GAH Fc 2nd Ab, SU-DHL-6 cells (none 4.6); control antibody"}, "HLA-DR (human) [9]": {"molecular_target": "HLA-DR (human)", "experiment": "indirect FACS, FITC-GAH Fc 2nd Ab, Raji cells (none 6.8); control antibody"}, "[10]": {"molecular_target": "antigen on dog lymphoma cells recognised by L243 and hL243 (dog)", "experiment": "flow cytometry on dog lymphoma aspirate, humanized MAbs (none 3.24); control antibody"}, "HLA-DR (human) [11]": {"molecular_target": "HLA-DR (human)", "experiment": "indirect flow cytometry, FITC-GAH Fc 2nd Ab, WSU-FSCCL cells (none 2.7); negative control antibody"}, "[12]": {"molecular_target": "antigen on dog lymphoma cells recognised by L243 and hL243 (dog)", "experiment": "flow cytometry on dog lymphoma aspirate, humanized MAbs (none 4.48); control antibody"}, "HLA-DR (human) [13]": {"molecular_target": "HLA-DR (human)", "experiment": "indirect flow cytometry, FITC-GAH Fc 2nd Ab, Raji cells (none 6.9); negative control antibody"}, "HLA-DR (human) [14]": {"molecular_target": "HLA-DR (human)", "experiment": "indirect flow cytometry, FITC-GAH Fc 2nd Ab, Ramos cells (none 3.1); negative control antibody"}, "HLA-DR (human) [15]": {"molecular_target": "HLA-DR (human)", "experiment": "indirect FACS, FITC-GAH Fc 2nd Ab, WSU-FSCCL cells (none 2.6); control antibody"}, "HLA-DR (human) [16]": {"molecular_target": "HLA-DR (human)", "experiment": "indirect flow cytometry, FITC-GAH Fc 2nd Ab, Namalwa cells (none 2.6); negative control antibody"}, "HLA-DR (human) [17]": {"molecular_target": "HLA-DR (human)", "experiment": "indirect flow cytometry, FITC-GAH Fc 2nd Ab, SU-DHL-6 cells (none 4.6); negative control antibody"}, "HLA-DR (human) [18]": {"molecular_target": "HLA-DR (human)", "experiment": "indirect flow cytometry on Namalwa cells, FITC-GAM 2nd Ab (none 2.91); control antibody"}}}
{"binder": "B1", "values": [{"measurement": "complement-mediated cytotoxicity (CDC) on Daudi cells, resazurin viability, EC50", "setting": "[1]", "value": 2.6, "unit": "nM"}]}
{"binder": "B2", "values": [{"measurement": "Geometric Mean Fluorescence", "setting": "HLA-DR (human) [2]", "value": 2.36}, {"measurement": "Geometric Mean Fluorescence", "setting": "HLA-DR (human) [3]", "value": 3.16}, {"measurement": "Geometric Mean Fluorescence", "setting": "HLA-DR (human) [4]", "value": 3.13}, {"measurement": "Geometric Mean Fluorescence", "setting": "HLA-DR (human) [5]", "value": 2.8}, {"measurement": "Geometric Mean Fluorescence", "setting": "HLA-DR (human) [6]", "value": 3.2}, {"measurement": "GEO MEAN Fluorescence", "setting": "HLA-DR (human) [7]", "value": 2.49}, {"measurement": "Geometric Mean Fluorescence", "setting": "HLA-DR (human) [8]", "value": 4.94}, {"measurement": "Geometric Mean Fluorescence", "setting": "HLA-DR (human) [9]", "value": 6.96}, {"measurement": "Mean FL", "setting": "[10]", "value": 3.24}, {"measurement": "Geometric Mean Fluorescence", "setting": "HLA-DR (human) [11]", "value": 2.7}, {"measurement": "%", "setting": "[12]", "value": 4.63, "unit": "%"}, {"measurement": "Geometric Mean Fluorescence", "setting": "HLA-DR (human) [13]", "value": 7}, {"measurement": "Geometric Mean Fluorescence", "setting": "HLA-DR (human) [14]", "value": 3.1}, {"measurement": "Geometric Mean Fluorescence", "setting": "HLA-DR (human) [15]", "value": 2.66}, {"measurement": "Geometric Mean Fluorescence", "setting": "HLA-DR (human) [16]", "value": 2.4}, {"measurement": "Geometric Mean Fluorescence", "setting": "HLA-DR (human) [17]", "value": 4.9}]}
{"binder": "B3", "values": [{"measurement": "GEO MEAN Fluorescence", "setting": "HLA-DR (human) [18]", "value": 3.32}]}
